Target: T1, cynomolgus TREM-1 (cTREM-1 protein, SPR analyte of Examples 9 and 11) (cynomolgus monkey)
T1 construct: Soluble analyte; also called cyno TREM1
T1 chain: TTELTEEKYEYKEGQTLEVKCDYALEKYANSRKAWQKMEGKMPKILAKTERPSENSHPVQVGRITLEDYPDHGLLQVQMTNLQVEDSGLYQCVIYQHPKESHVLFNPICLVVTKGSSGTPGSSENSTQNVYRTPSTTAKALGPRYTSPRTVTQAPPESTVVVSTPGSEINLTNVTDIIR
Experiment: SPR, mAb captured, cTREM-1 analyte
Procedure: Binding studies were performed on a ProteOn Analyzer (BioRad) that measures molecular interactions in real time through surface plasmon resonance. Experiments were run at 25° C. and the samples were stored at 15° C. in the sample compartment. The signal (RU, response units) reported by the ProteOn is directly correlated to the mass on the individual sensor chip surfaces in six parallel flow cells. Anti-human Fc monoclonal or anti-murine Fc polyclonal antibody from Biacore human or mouse Fc capture kits were immobilized in horizontal direction onto flow cells of a GLM sensor chip according to the manufacturer's instructions. The final immobilization level of capture antibody was approximately 2600-6000 RU in different experiments. […] The GLM surface was regenerated after each injection cycle of analyte via two 18 s injections of 10 mM Glycine, pH 1.7 and 50 mM NaOH at 100 μl/min. This regeneration step removed the anti-TREM-1 antibody and any bound TREM-1 protein from the immobilized capture antibody surface, and allowed for the subsequent binding of the next interaction sample pair.

Kd: 0.94 nM
B1: mAb 0121 (antibody, V domains shown)
VH: EVQLVESGGGLVQPGGSLKLSCAASGFTFSTYAMHWVRQASGKGLEWVGRIRTKSSNYATYYAASVKGRFTISRDDSKNTAYLQMNSLKTEDTAVYYCVRDMGQRRQFAYWGQGTLVTVSS
VL: DIVMTQSPDSLAVSLGERATINCRASESVDTFDYSFLHWYQQKPGQPPKLLIYRASNLESGVPDRFSGSGSGTDFTLTISSLQAEDVAVYYCQQSNEDPYTFGQGTKLEIK
notes: recombinant; also called 14F113/14F69 hz variant HC T93V; 14F113 hz variant HC T93V
